pKd: −log10 of the molar value.
Experiments:
Assay in all cases: EMSA
[1] = system: eIF3 (a Box37) (Saccharomyces cerevisiae); details: mean of 2, Met-charged tRNAi, 30 mM HEPES-KOH pH 7.4, 100 mM KOAc, 3 mM Mg(OAc)2, 2 mM DTT, 1 mM GDPNP, 26 C, 2 h, native 4% THEM gel
[2] = system: eIF3 (a Box6) (Saccharomyces cerevisiae); details: mean of 2, Met-charged tRNAi, 30 mM HEPES-KOH pH 7.4, 100 mM KOAc, 3 mM Mg(OAc)2, 2 mM DTT, 1 mM GDPNP, 26 C, 2 h, native 4% THEM gel
[3] = system: eIF3 (a delta8) (Saccharomyces cerevisiae); details: mean of 2, Met-charged tRNAi, 30 mM HEPES-KOH pH 7.4, 100 mM KOAc, 3 mM Mg(OAc)2, 2 mM DTT, 1 mM GDPNP, 26 C, 2 h, native 4% THEM gel
[4] = system: eIF3 (c Box12-SPW) (Saccharomyces cerevisiae); details: mean of 2; Met-charged tRNAi; 30 mM HEPES-KOH pH 7.4, 100 mM KOAc, 3 mM Mg(OAc)2, 2 mM DTT, 1 mM GDPNP, 26 C, 2 h; native 4% THEM gel
[5] = system: eIF3 (c GAP85) (Saccharomyces cerevisiae); details: mean of 2, Met-charged tRNAi, 30 mM HEPES-KOH pH 7.4, 100 mM KOAc, 3 mM Mg(OAc)2, 2 mM DTT, 1 mM GDPNP, 26 C, 2 h, native 4% THEM gel
[6] = system: eIF3 (c delta60) (Saccharomyces cerevisiae); details: mean of 2, Met-charged tRNAi, 30 mM HEPES-KOH pH 7.4, 100 mM KOAc, 3 mM Mg(OAc)2, 2 mM DTT, 1 mM GDPNP, 26 C, 2 h, native 4% THEM gel
[7] = system: eIF3 (g KLF) (Saccharomyces cerevisiae); details: mean of 2, Met-charged tRNAi, 30 mM HEPES-KOH pH 7.4, 100 mM KOAc, 3 mM Mg(OAc)2, 2 mM DTT, 1 mM GDPNP, 26 C, 2 h, native 4% THEM gel
[8] = system: eIF3 (i Q258R) (Saccharomyces cerevisiae); details: mean of 2, Met-charged tRNAi, 30 mM HEPES-KOH pH 7.4, 100 mM KOAc, 3 mM Mg(OAc)2, 2 mM DTT, 1 mM GDPNP, 26 C, 2 h, native 4% THEM gel
[9] = system: eIF3 WT (a/b/c/i/g) (Saccharomyces cerevisiae); details: Met-charged tRNAi, 30 mM HEPES-KOH pH 7.4, 100 mM KOAc, 3 mM Mg(OAc)2, 2 mM DTT, 1 mM GDPNP, 26 C, 2 h, native 4% THEM gel
[10] = system: eIF3 a/b/c sub-complex (Saccharomyces cerevisiae); details: mean of 2, Met-charged tRNAi, 30 mM HEPES-KOH pH 7.4, 100 mM KOAc, 3 mM Mg(OAc)2, 2 mM DTT, 1 mM GDPNP, 26 C, 2 h, native 4% THEM gel
[11] = system: eIF3 (a H725P) (Saccharomyces cerevisiae); details: mean of 2; Met-charged tRNAi; uncapped mRNA; 30 mM HEPES-KOH pH 7.4, 100 mM KOAc, 3 mM Mg(OAc)2, 2 mM DTT, 1 mM GDPNP, 26 C, 2 h; native 4% THEM gel
[12] = system: eIF3 (a R731I) (Saccharomyces cerevisiae); details: mean of 2; Met-charged tRNAi; uncapped mRNA; 30 mM HEPES-KOH pH 7.4, 100 mM KOAc, 3 mM Mg(OAc)2, 2 mM DTT, 1 mM GDPNP, 26 C, 2 h; native 4% THEM gel

43S PIC (40S rRNA + Met-tRNAi)
pKd [1]: 7.23 | pKd [2]: 7.46 | pKd [3]: 7.06 | pKd [4]: 7.18 | pKd ([5]; upper limit): 7.58 | pKd ([6]; upper limit): 7.62 | pKd ([7]; upper limit): 7.67 | pKd ([8]; upper limit): 7.52 | pKd ([9]; mean of 43, 24, text <=38 nM, upper limit): 7.47 | pKd [10]: 7.03

48S PIC (40S rRNA + Met-tRNAi + AUG model mRNA)
pKd ([1]; uncapped mRNA): 7.08 | pKd ([2]; uncapped mRNA): 7.42 | pKd [11]: 7.20 | pKd [12]: 7.30 | pKd ([3]; uncapped mRNA): 7.05 | pKd ([5]; uncapped mRNA): 7.42 | pKd ([6]; uncapped mRNA): 7.33 | pKd ([7]; uncapped mRNA): 7.28 | pKd ([8]; uncapped mRNA): 7.31 | pKd ([9]; mean of 2, uncapped mRNA): 7.43 | pKd ([10]; uncapped mRNA): 6.96
